From US20260027209A1 come the findings set out here.

In the assay the target is human Claudin-6 (human) (UniProt P56747). Briefly: flow cytometry on Dubca.huCLDN6.Luc cells against Dubca cells. A general note: In flow cytometry, cells or beads pass a laser one at a time.
UniProt P56747, sequence (P56747 whole entry): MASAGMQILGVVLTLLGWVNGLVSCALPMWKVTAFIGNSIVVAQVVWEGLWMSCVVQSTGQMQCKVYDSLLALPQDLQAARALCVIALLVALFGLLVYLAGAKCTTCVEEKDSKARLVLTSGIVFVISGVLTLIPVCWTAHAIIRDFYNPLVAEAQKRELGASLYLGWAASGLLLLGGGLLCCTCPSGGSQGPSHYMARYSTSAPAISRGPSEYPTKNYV

Regarding “human CLDN6 AlexaFluor 700-conjugated antibody (R&D, Cat. No. FAB3656N)”, the MFI fold over untransduced Dubca cells is 203 fold.
